These results are taken from patent publication US20240199755A1, “ANTAGONISTS AND AGONISTS OF THE TRANSFERRIN RECEPTOR-2 FOR USE IN THE TREATMENT OF DISEASES OF THE BONE” (Kymab Limited, priority 2018, published 2024).

For experiment [1], the system named is trauma-induced heterotopic ossification. Put plainly: Trauma-potentiated (drop-weight) heterotopic ossification model. The format is in vivo. Conditions: WT mice; after three weeks; Tfr2-ECD single dose, palovarotene or ibuprofen daily. On the procedure:
(§1) For systemic Tfr2-ECD treatment, WT mice were treated every other day with Tfr2-ECD intraperitoneally for two weeks. Mice received 250 μg Tfr2-ECD (10 mg/kg BW) per injection for the first 10 days after BMP-2/matrigel injection into the muscle and 125 μg per injection (5 mg/kg BW) for the remaining time. This experiment was performed once with 8-10 mice per group. Drop-weight HO: This experiment was performed according to Liu et al. with minor modifications^65. Female 10-12-week-old WT mice were anesthetized and placed on a ridge of a plastic container over which the right leg was bent so the femur was lying horizontally. Mice received an injection of 1 μg BMP-2 mixed in 50 μl matrigel. Afterwards, a stainless-steel ball of 16 g (16 mm diameter) was dropped from a distance of 80 cm height onto the quadriceps muscle. Mice either received a single dose of 1 μg Tfr2-ECD, which was co-injected with the BMP-2/matrigel mixture, or palovarotene (Hycultec), which was administered daily by oral gavage. Palovarotene was dissolved in DMSO and diluted 1:4 with corn oil. Mice received palovarotene at a dose of 100 μg/mouse for the first five days and 50 μg/mouse for the remainder of the experiment (days 621). One group of mice received ibuprofen via the drinking water at a dose of 100 mg/ml which was changed every other day^66. […]

In experiment [2] the target is T1, BMP-2 (Homo sapiens, UniProt P12643).
T1 sequence (P12643 283-396): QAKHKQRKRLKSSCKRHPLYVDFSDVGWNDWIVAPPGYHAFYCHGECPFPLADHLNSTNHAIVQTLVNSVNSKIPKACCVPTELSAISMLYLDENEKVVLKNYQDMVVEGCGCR
The experiment in a line: BMP-2 competitive ELISA. It counts as binding. Conditions: 1.5 ng/ml BMP-2 with increasing concentrations of protein. As to the method: In order to carry out the BMP-2-competitive ELISA, the Duo Set BMP-2 ELISA kit by R&D Systems is used.
The Duo Set BMP-2 ELISA kit from R&D Systems was used. […] After 1 h incubation at RT and extensive washing, the detection antibody was added according to the manufacturer's protocol and the amount of BMP-2 was quantified. This experiment was performed at least three independent times.
(An ELISA detects its analyte on a solid surface through an enzyme-linked reagent.)

Experiment [3] relates to BMP-2-induced heterotopic ossification. Put plainly: BMP-2-induced heterotopic ossification (HO) mouse model. It counts as in vivo, mice. Conditions: for Heterotopic ossification (bone volume by μCT): after two weeks. As to the method:
Male and female C57BL/6 mice are used for the HO model. The HO is triggered by injecting BMP-2 into the muscle (Wosczyna et al. 2012).
All the mice are fed with standard feed and water ad libitum and are kept in groups of five mice per cage. The mice are exposed to a 12-hour light/dark cycle and air cooling to 23° C. (no special pathogen-free room). Enrichment is provided in the form of cardboard houses and bedding material. The mice are randomly divided into the different treatment groups and the assays are subsequently carried out as blind experiments.
The HO is examined by means of treatment using 2.5 μl of a 1 mg/ml recombinant BMP-2 solution (Thermo Fisher Scientific) or 2.5 μl of a 1 mg/ml Tfr2-ECD mixed with 47.5 μl Matrigel (BD Bioscience) at 0° C. For combination treatment, 2.5 of a 1 mg/ml recombinant BMP-2 solution is mixed with 2.5 μl of a 1 mg/ml Tfr2-ECD and 45 μl Matrigel. The Matrigel mixtures are injected into the musculus tibialis anterior of 10-week-old female wild-type mice. The legs are examined after two weeks.
The bone microarchitecture is analyzed using vivaCT40 (Scanco Medical, Switzerland). The entire lower leg bones are measured at a resolution of 10.5 μm using X-rays of 70 kVp, […] and at an integration time of 200 s. Predefined scripts from Scanco are used to analyze the bone (#1).
Heterotopic ossification (HO): The HO model was performed according to Wosczyna et al^32. Briefly, 2.5 μl of 1 mg/ml recombinant BMP-2 (Thermo Fisher) or 2.5 μl of 1 mg/ml Tfr2-ECD were mixed with 47.5 μl matrigel (BD Bioscience) on ice. For the local combination treatment, 2.5 μl BMP-2 were mixed with 2.5 μl Tfr2-ECD and 45 μl matrigel. The matrigel-mixtures were injected into the midbelly of the tibialis anterior muscle of 10-week-old female WT and Tfr2-deficient mice. Some mice were treated daily with palovarotene through oral gavage using a previously published protocol^58. Palovarotene (Hycultec) was dissolved in DMSO and diluted 1:4 with corn oil. Mice received palovarotene at a dose of 100 μg/mouse for the first five days and 50 μg/mouse for the remainder of the experiment (days 6-14). Two weeks after BMP-2 injection, the legs were harvested for analysis. This experiment was performed three times with 3-11 mice per group. To analyze the chondrogenic phase of HO, we performed an experiment as described above that was terminated on day 8. This was performed once with 4-6 mice per group.
as §1, with “oil.” for “oil. Mice received palovarotene at a dose of 100 μg/mouse for the first five days and 50 μg/mouse for the remainder of the experiment (days 621). One group of mice received ibuprofen via the drinking water at a dose of 100 mg/ml which was changed every other day^66.”

Setting [4] is: WT mice, day 8, systemic treatment, Safranin O staining.

“Also recorded” adds a separate entry of the source.

B1: Tfr2-ECD: Recombinant full-length extracellular domain (aa 103-798) of murine Tfr2, His-tagged, expressed in Sf9 insect cells (protein, listed as Mus musculus)
chain: RGSCQACGDSVLVVDEDVNPEDSGRTTLYWSDLQAMFLRFLGEGRMEDTIRLTSLRERVAGSARMATLVQDILDKLSRQKLDHVWTDTHYVGLQFPDPAHANTLHWVDADGSVQEQLPLEDPEVYCPYSATGNATGKLVYAHYGRSEDLQDLKAKGVELAGSLLLVRVGITSFAQKVAVAQDFGAQGVLIYPDPSDFSQDPHKPGLSSHQAVYGHVHLGTGDPYTPGFPSFNQTQFPPVESSGLPSIPAQPISADIADQLLRKLTGPVAPQEWKGHLSGSPYRLGPGPDLRLVVNNHRVSTPISNIFACIEGFAEPDHYVVIGAQRDAWGPGAAKSAVGTAILLELVRTFSSMVSNGFRPRRSLLFISWDGGDFGSVGATEWLEGYLSVLHLKAVVYVSLDNSVLGDGKFHAKTSPLLVSLIENILKQVDSPNHSGQTLYEQVALTHPSWDAEVIQPLPMDSSAYSFTAFAGVPAVEFSFMEDDRVYPFLHTKEDTYENLHKMLRGRLPAVVQAVAQLAGQLLIRLSHDHLLPLDFGRYGDVVLRHIGNLNEFSGDLKERGLTLQWVYSARGDYIRAAEKLRKEIYSSERNDERLMRMYNVRIMRVEFYFLSQYVSPADSPFRHIFLGQGDHTLGALVDHLRMLRADGSGAASSRLTAGLGFQESRFRRQLALLTWTLQGAANALSGDVWNIDNNF
modifications: His tag
notes: Recombinant full-length extracellular domain (aa 103-798) of murine Tfr2, His-tagged, expressed in Sf9 insect cells
Regarding B1, in experiment [1], the “New bone formation in the muscle (trauma-induced HO, μCT)” value is “inhibited new bone formation in the muscle comparable to palovarotene”. Further, the “BMP-2 binding: signal of the BMP-2 detection antibody” value was “verified” in experiment [2] and “signal of the BMP-2 detection antibody reduced” in experiment [2] (listed as protein according to the invention). Also, the “Heterotopic ossification (bone volume by μCT)” value in experiment [3] (Tfr2-/- mice, co-application of Tfr2-ECD with BMP-2) is given as “significantly inhibited”; in experiment [3] (WT mice, local Tfr2-ECD co-injected with BMP-2 into the muscle), “significant reduction in bone formation; also recorded: completely abrogated; also recorded: reduced; also recorded: inhibited”; in experiment [3] (WT mice, systemic treatment, i.p. injections every other day) it was “reduced; also recorded: inhibited”. The “Number of chondrocytes (chondrogenic phase of HO)” value in experiment [3] (setting [4]) was “suppressed”. Also, the “Production of cartilage (chondrogenic phase of HO)” value in experiment [3] (setting [4]) is “suppressed”.
